Laboratory results taken from US20240400657A1 (MorphoSys, published 2024).

T1: engineered version of human C5aR expressed on CHO cells of the PathHunter β-arrestin assay (DiscoveRx) (human, UniProt P21730 1-350)
T1 sequence (looked up): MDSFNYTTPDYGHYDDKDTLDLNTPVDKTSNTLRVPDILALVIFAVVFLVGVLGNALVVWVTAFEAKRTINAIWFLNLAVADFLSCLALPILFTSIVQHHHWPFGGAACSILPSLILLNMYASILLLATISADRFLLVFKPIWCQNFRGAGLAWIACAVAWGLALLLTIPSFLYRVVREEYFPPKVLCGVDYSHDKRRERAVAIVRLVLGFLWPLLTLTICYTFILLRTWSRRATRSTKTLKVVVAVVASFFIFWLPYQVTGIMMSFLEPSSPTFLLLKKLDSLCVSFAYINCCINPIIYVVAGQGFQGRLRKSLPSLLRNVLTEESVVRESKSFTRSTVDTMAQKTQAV

T2: Mouse FcRn p51 [1-297]/AviHis/p14 biotinylated (mouse, UniProt Q61559 22-298; P01887 21-119, biotinylated in vitro with BirA (Avi tag))
T2 construct: Heterodimer; UniProt Q61559 (p51); also called Murine FcRn
T2 chain 1: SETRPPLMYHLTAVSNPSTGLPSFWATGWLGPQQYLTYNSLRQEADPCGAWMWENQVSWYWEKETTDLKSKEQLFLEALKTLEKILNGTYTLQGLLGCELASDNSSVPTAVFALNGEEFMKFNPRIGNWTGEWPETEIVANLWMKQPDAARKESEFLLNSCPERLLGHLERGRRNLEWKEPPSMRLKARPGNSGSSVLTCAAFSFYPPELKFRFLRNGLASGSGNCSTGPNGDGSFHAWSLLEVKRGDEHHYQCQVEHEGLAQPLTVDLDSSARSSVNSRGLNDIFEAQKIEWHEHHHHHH
T2 chain 2: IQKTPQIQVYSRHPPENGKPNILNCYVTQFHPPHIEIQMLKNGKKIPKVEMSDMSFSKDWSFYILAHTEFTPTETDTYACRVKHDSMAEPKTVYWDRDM

T3: Rat FcRn p51 [1-298]/AviHis/p14 biotinylated (rat, UniProt P13599 23-299; P07151 21-119, biotinylated in vitro with BirA (Avi tag))
T3 construct: Heterodimer; UniProt P13599 (p51)
T3 sequence 1: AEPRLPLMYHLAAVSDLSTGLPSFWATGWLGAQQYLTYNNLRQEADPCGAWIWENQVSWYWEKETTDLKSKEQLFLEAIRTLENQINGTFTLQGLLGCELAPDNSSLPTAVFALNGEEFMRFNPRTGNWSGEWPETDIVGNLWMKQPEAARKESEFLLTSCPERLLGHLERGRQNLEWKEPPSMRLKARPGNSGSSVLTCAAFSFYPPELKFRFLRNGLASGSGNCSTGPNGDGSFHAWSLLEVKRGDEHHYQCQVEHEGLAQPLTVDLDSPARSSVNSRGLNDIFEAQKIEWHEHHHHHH
T3 sequence 2: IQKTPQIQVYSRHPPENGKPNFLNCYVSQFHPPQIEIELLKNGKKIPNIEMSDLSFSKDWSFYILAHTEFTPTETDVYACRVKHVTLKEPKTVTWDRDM

T4: human C5aR_NT-bio peptide (human, biotin tag (position not given))
T4 construct: Chemically synthesized linear peptide (Genscript); also called human C5aR N-terminal peptide; human C5aR peptide
T4 peptide: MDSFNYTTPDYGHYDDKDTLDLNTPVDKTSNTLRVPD

T5: C5aR expressed on purified human neutrophils (human, UniProt P21730 1-350)
T5 sequence (looked up): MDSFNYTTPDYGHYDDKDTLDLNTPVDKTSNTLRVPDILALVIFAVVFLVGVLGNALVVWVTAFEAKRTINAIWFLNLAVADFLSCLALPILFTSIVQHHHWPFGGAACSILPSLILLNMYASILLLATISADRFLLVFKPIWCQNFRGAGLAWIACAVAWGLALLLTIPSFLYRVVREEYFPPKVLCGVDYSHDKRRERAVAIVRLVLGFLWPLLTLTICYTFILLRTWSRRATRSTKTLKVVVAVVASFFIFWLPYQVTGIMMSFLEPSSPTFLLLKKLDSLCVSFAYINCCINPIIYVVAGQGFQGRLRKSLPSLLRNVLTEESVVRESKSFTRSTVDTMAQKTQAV

T6: full-length human ChemR23 expressed on CHO Flp-In cells (human, UniProt Q99788 1-373)
T6 construct: also called Chemokine-like receptor 1
T6 sequence: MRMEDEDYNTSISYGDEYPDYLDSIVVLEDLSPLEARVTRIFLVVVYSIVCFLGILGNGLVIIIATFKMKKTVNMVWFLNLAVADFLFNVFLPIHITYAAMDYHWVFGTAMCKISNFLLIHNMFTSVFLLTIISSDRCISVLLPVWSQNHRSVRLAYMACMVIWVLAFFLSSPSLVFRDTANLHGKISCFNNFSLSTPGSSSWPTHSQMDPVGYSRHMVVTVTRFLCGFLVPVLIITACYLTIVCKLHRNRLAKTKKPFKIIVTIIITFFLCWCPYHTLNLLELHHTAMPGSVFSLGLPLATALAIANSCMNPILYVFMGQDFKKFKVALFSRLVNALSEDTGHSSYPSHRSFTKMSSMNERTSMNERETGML

B1: MAB #2 (antibody, human IgG1, lambda)
heavy: EVQLVESGGGLVKPGGSLRLSCAASGFTFSSYAMHWVRQAPGKGLEWVGRIKSVAQGGTTDYAAHVKGRFTISRDDSKNTLYLQMNSLKTEDTAVYYCARVSHSTFDVWGQGTLVTVSSASTKGPSVFPLAPSSKSTSGGTAALGCLVKDYFPEPVTVSWNSGALTSGVHTFPAVLQSSGLYSLSSVVTVPSSSLGTQTYICNVNHKPSNTKVDKRVEPKSCDKTHTCPPCPAPEAEGAPSVFLFPPKPKDTLMISRTPEVTCVVVDVSHEDPEVKFNWYVDGVEVHNAKTKPREEQYNSTYRVVSVLTVLHQDWLNGKEYKCKVSNKALPSSIEKTISKAKGQPREPQVYTLPPSREEMTKNQVSLTCLVKGFYPSDIAVEWESNGQPENNYKTTPPVLDSDGSFFLYSKLTVDKSRWQQGNVFSCSVMHEALHNHYTQKSLSLSPGK
light: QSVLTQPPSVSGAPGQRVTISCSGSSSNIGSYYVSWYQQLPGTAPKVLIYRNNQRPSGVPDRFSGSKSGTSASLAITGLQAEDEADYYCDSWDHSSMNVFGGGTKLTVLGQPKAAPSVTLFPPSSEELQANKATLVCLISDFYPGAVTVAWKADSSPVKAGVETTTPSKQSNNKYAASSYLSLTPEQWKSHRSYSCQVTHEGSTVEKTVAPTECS
notes: lambda 1 light chain
B2: MAB #1 (antibody, human IgG1, lambda)
heavy: EVQLVESGGGLVKPGGSLRLSCAASGFTFSSYAMHWVRQAPGKGLEWVGRIKSKAQGGTTDYAAHVKGRFTISRDDSKNTLYLQMNSLKTEDTAVYYCARVSFSTFDVWGQGTLVTVSSASTKGPSVFPLAPSSKSTSGGTAALGCLVKDYFPEPVTVSWNSGALTSGVHTFPAVLQSSGLYSLSSVVTVPSSSLGTQTYICNVNHKPSNTKVDKRVEPKSCDKTHTCPPCPAPEAEGAPSVFLFPPKPKDTLMISRTPEVTCVVVDVSHEDPEVKFNWYVDGVEVHNAKTKPREEQYNSTYRVVSVLTVLHQDWLNGKEYKCKVSNKALPSSIEKTISKAKGQPREPQVYTLPPSREEMTKNQVSLTCLVKGFYPSDIAVEWESNGQPENNYKTTPPVLDSDGSFFLYSKLTVDKSRWQQGNVFSCSVMHEALHNHYTQKSLSLSPGK
light: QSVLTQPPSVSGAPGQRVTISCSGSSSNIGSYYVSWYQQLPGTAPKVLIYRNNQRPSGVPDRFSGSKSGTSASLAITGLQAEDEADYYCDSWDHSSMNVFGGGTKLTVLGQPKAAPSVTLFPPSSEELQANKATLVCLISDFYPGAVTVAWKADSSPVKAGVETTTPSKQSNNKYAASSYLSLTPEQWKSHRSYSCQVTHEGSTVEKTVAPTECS
notes: lambda 1 light chain, VH3-15 framework

Columns and labels:
[1] = target: T1, engineered version of human C5aR …; assay: cell-based or functional assay
[2] = target: T2, Mouse FcRn p51 [1-297]/AviHis/p14 …; assay: BLI (Octet HTX), biotinylated FcRn on SA sensors, IgG titrated, steady state fit, apparent KD, pH 6.0
From the text: (§1) 0.5 nm of biotinylated human, cynomolgus, mouse and rat FcRn were captured on streptavidin (SA) sensors (FortéBIO, Pall Life Sciences). […] All sensorgrams were fitted using Data Analysis Software 10.0 (FortéBIO, Pall Life Sciences) to determine the apparent affinity and the data was fitted with a steady state model.

[3] = target: T3, Rat FcRn p51 [1-298]/AviHis/p14 …; assay: as above
From the text: as §1

[4] = target: bovine transferrin (bovine, UniProt Q29443 20-704); assay: Protein Panel Profiling (3P), MSD ECL, coated antigen, IgG 10 nM
Method: (§2) 32 different proteins and controls were coated on two 384-well MSD standard plates at a concentration of 1.0 μg/mL at 4° C. over night. The coating solution was discarded and plates were blocked with 50 μL 3% (w/v) BSA in PBS for one hour at RT on a microtiter plate shaker (˜500 rpm) followed by three washing steps with 50 μL washing buffer (PBS with 0.05% (v/v) Tween 20). IgG samples were diluted to 100 nM and 10 nM in assay buffer (PBS with 0.5% (w/v) BSA, 0.05% (v/v) Tween 20). As controls, isotype control antibody MOR03207 (IgG1f_AEASS) and assay buffer were used. Samples and controls were added at 30 μL/well and incubated for three hours at RT on a microtiter plate shaker. The plates were washed three times and 30 μL detection antibody (ECL-labeled anti-human Fab) were added per well and incubated for one hour on a microtiter plate shaker (˜500 rpm). After washing the MSD plate and adding 35 μL/well MSD Read Buffer T with surfactant, electro-chemiluminescence signals were detected using a SECTOR® Imager S600 instrument (Meso Scale Diagnostics).
(§3) For evaluation, binding signals of the antibody sample to a certain protein were divided by the respective binding signals of the reference antibody MOR03207 resulting in a binding ratio (BR). The cumulative binding ratio (CBR) of all proteins except the controls (25 in total) was then calculated: CBR up to 150 indicates an IgG without detectable unspecific binding. Values above 150 indicates an IgG with increased unspecific binding compared to the reference antibody MOR03207.

[5] = target: T7, Cell surface rec. 1_Lys (h); assay: as above
T7 construct: identity not disclosed
Method: as §2, §3

[6] = target: T4, human C5aR_NT-bio peptide; assay: as above
Method: as §2, §3

[7] = target: T8, Cell surface rec. 2_Fc (h); assay: as above
T8 construct: identity not disclosed
Method: as §2, §3

[8] = target: T9, Fc (h); assay: as above
T9 construct: '(h)' on the sheet read as human
Method: as §2, §3

[9] = target: Trypsinogen; assay: as above
Method: as §2, §3

[10] = target: T5, C5aR expressed on purified human …; assay: cell-based or functional assay
[11] = target: T10, HIS6-human C5aR (D/K variant)-HV1B1-GAG (human); assay: ELISA on coated VLPs, IgG titration (N = 2)
T10 construct: the VLPs were coated for ELISA; also called huC5aR (D/K); human C5aR D/K variant on VLPs

[12] = target: T11, HIS6-human C5aR (N/N variant)-HV1B1-GAG (human); assay: ELISA on coated VLPs, IgG titration (N = 2)
T11 construct: also called huC5aR (N/N); human C5aR N/N variant on VLPs

[13] = target: T6, full-length human ChemR23 expressed on …; assay: FACS, CHO Flp-In cells expressing human ChemR23, single IgG concentration

bovine transferrin, sequence (Q29443 20-704 limits assumed): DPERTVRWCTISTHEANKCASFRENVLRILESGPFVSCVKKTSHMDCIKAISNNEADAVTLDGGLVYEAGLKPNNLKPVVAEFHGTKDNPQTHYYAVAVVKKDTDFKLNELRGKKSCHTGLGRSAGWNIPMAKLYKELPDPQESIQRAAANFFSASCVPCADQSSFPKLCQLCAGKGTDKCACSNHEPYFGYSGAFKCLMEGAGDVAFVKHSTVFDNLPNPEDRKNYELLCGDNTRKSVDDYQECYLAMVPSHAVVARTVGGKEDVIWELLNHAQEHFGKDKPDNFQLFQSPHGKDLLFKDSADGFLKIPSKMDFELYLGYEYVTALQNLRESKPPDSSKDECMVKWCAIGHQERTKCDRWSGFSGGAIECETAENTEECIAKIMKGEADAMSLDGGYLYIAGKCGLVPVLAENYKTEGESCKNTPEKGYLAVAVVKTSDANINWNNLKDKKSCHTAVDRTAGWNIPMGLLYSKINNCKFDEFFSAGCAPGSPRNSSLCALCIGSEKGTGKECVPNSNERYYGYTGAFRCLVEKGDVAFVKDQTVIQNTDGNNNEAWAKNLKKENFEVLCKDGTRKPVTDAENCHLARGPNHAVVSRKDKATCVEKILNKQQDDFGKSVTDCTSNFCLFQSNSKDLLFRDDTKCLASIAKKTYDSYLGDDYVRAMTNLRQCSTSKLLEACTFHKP

Binder	[%] inhibition at 1.2 nM C5a and 50 nM IgG, β-arrestin recruitment [1] [%]	[%] inhibition at 11 nM C5a and 50 nM IgG, β-arrestin recruitment [1] [%]	[%] inhibition at 100 nM C5a and 50 nM IgG, β-arrestin recruitment [1] [%]	Kd [2] [nM]	Kd [3] [nM]	binding ratio (signal / signal of MOR03207) [4]	binding ratio (signal / signal of MOR03207) [5]	binding ratio (signal / signal of MOR03207) [6]	binding ratio (signal / signal of MOR03207) [7]	binding ratio (signal / signal of MOR03207) [8]	binding ratio (signal / signal of MOR03207) [9]	IgG concentration for 50% inhibition of CD11b upregulation, granulocytes, 15 nM human C5a [10] [nM]	IgG concentration for 50% inhibition of CD11b upregulation, granulocytes, 150 nM human C5a [10] [nM]	EC50 [11] [nM]	EC50 [12] [nM]	binding result [13]
B1	90.5	75.2	31.2	7.3	10	4	1	46	1	1	1	17	114	0.5	0.5	no binding (tested: 300 nM)
B2	91.9	79.9	41.8	4.3	5.7	8	1	82	1	1	1	12	42	0.5	0.5	no binding (tested: 300 nM)
